Measured values taken from patent EP4471049A1 (Zealand Pharma A/S, priority 2023, dated 2024).
Where two headings read alike, the source gives them in different places. *1 amine or outer side, *2 acyl side, *3 side chain or, on linkers, in order; H or OH if unused. Where a SMILES comes first, the peptide text is derived from it. Bridges are numbered along the chain shown (N, C = ends). Where no end group is shown, it is not given here. [ ]: non-standard residue; d: D form. 4‑Aminomethyl‑phenylacetyl = 4-aminomethyl-phenylacetyl unit, its amine closes the lactam, O=C(Cc1ccc(CN[*:1])cc1)[*:2]; 2Nal = N[C@@H](Cc1ccc2ccccc2c1)C(=O)O; AEF = NCCOc1ccc(C[C@H](N)C(=O)O)cc1; X1 = O=C(Cc1ccc(CN[*:1])cc1)[*:2]; 3Pal = N[C@@H](Cc1cccnc1)C(=O)O; αMeL = CC(C)C[C@](C)(N)C(=O)O; β3hL = CC(C)C[C@H](N)CC(=O)O; 3Amb = NCc1cccc(C(=O)O)c1; Dab = NCC[C@H](N)C(=O)O

T1: human IL-23R (Homo sapiens, UniProt Q5VWK5)
T1 sequence (Q5VWK5 22-629): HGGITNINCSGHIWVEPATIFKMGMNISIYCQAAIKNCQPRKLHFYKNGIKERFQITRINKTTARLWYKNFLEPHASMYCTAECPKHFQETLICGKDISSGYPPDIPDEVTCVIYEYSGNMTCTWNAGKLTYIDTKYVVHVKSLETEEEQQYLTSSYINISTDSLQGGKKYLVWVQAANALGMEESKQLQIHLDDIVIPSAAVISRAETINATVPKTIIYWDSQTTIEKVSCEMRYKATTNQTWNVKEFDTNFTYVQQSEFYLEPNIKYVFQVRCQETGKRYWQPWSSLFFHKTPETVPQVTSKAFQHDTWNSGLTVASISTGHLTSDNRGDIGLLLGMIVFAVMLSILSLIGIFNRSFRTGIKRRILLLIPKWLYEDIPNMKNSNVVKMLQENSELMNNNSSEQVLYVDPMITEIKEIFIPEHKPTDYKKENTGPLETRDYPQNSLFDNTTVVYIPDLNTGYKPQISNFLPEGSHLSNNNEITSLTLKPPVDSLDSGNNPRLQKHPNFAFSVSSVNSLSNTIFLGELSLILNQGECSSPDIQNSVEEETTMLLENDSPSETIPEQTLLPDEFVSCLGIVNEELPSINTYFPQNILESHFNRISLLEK

T2: Nluc-IL23R fusion protein (human, UniProt Q5VWK5 22-629)
T2 construct: range 22-629; expressed with a secretion signal in HEK293 cells; used as crude membrane preparation; also called hIL-23R; human IL-23R; not shown: Nanoluc protein from the expression plasmid N1371 (Promega), N-terminal of IL-23R
T2 sequence (looked up): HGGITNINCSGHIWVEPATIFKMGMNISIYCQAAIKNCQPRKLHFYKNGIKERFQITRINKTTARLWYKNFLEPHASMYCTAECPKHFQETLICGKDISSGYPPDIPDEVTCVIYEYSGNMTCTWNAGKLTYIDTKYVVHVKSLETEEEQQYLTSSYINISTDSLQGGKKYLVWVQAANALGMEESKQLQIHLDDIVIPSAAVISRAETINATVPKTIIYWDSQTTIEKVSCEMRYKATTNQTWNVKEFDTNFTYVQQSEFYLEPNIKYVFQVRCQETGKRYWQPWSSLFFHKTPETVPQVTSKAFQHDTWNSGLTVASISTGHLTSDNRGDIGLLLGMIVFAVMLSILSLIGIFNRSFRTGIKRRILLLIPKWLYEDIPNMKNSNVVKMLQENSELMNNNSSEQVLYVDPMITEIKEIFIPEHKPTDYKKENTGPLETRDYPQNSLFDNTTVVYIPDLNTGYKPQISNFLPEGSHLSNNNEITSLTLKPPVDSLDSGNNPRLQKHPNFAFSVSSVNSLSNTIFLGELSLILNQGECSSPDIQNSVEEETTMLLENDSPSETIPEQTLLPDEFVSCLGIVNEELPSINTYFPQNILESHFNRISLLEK

T3: human IL-23R endogenously expressed on DB cells (human, UniProt Q5VWK5 24-629)
T3 sequence (looked up): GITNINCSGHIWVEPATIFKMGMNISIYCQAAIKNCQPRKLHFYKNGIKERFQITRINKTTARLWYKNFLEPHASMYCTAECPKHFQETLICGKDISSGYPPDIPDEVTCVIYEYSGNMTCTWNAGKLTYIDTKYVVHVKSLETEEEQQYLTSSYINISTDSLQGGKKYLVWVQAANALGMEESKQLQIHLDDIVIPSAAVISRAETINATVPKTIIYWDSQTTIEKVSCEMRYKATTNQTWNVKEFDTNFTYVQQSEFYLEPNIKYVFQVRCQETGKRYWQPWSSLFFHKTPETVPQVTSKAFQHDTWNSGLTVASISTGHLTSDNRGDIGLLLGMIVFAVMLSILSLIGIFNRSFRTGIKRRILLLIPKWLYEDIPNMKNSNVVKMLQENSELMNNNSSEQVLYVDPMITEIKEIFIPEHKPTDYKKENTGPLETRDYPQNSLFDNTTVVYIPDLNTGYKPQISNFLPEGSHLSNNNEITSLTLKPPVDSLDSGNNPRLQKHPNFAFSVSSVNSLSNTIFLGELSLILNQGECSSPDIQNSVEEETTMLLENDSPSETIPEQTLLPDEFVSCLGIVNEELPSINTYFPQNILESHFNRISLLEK


Legend:
[1] = molecular target: IL-23 mediated STAT3 signalling (Homo sapiens, UniProt Q5VWK5); assay: Functional inhibition of IL-23 mediated STAT3 signalling (phospho-STAT3 Tyr705 MSD, DB cells); type: cell-based
Method: The ability of compounds to inhibit IL-23 mediated signalling was determined in the human-derived DB cell line (CRL-2289) (hereafter referred to as DB cells), which endogenously expresses the human IL-23R and human IL-12R β1 subunits. Upon binding of IL-23, the IL-23R forms a heterodimer signalling complex together with IL-12R β1, which through the JAK2/STAT3 pathway promotes phosphorylation of STAT3 to form phospho-STAT3. In the assay, the functional antagonism of IL-23 mediated phospho-STAT3 formation in DB cells by the compound is quantified using reagents capable of measuring the phosphorylation state of Tyr705 of STAT3 in the form of a phospho-STAT3 (Tyr705) MSD (Meso Scale Discovery) kit.
[…]. For compounds tested in this assay, the response was normalized relative to control values to calculate the IC50 and maximal inhibitory response from a concentration response curve of the compound in presence of a fixed concentration of human IL-23.
The assay procedure was as follows. DB cells were maintained in growth medium consisting of RPMI-1640 [Invitrogen 61870-010] supplemented with 10% V/V Foetal Bovine Serum (FBS) [(heat inactivated), Invitrogen 10270-106], and 1% V/V Penicillin-Streptomycin (Pen-Strep) Solution [Invitrogen 15140]. On the day of assay, cells were resuspended in Assay buffer consisting of RPMI-1640 [Invitrogen 61870-010] supplemented with 0.1 % w/V BSA [Sigma-Aldrich A9430] to a density of 7.5x10^6 cells/mL. Compounds to be tested for inhibition of hIL-23 mediated signalling were serially diluted in Assay buffer to 3X the final concentration. A solution of hIL-23 corresponding to 3X the EC80 of hIL-23 (1.7 nM) was also prepared in Assay buffer. To initiate the assay, 20 µL of DB cell suspension (corresponding to 150.000 cells/well) was added to the wells of a 96-well V-bottom Polypropylene plate [Corning 3363] followed by addition of 3X 20 µL of the diluted test compounds to separate wells. Following preincubation of the DB cells with inhibitor for 15 min in a cell incubator (37 °C, 5% CO2), 20 µL of the prepared 3X the EC80 of hIL-23 solution was added to each well and incubated for 90 min in a cell incubator (37 °C, 5% CO2). For some wells buffer only or IL-23 only corresponding to the EC80 was added to obtain readouts needed for normalization. To terminate the assay, the plate was spun at 1000 G for 5 min to pellet cells, the supernatant removed using an 8-channel manual pipette, and then added 50 µL/well Complete Lysis Buffer from the MSD STAT3 kit (Cat# K150SVD, Mesoscale) to the cell pellet. To completely lyse cells to release phospho-STAT3 for detection, the plate was shaken for 10 min at room temperature (500 rpm) sealed with aluminium foil and placed at -80 °C for a minimum of 15 min. Detection of the phospho-STAT3 level in the cell lysate from the individual wells was determined using the MSD STAT3 kit (Cat# K150SVD, Mesoscale) and read on a Meso QuickPlex SQ 120 plate reader (Mesoscale).
For data analysis raw data counts from the Meso QuickPlex SQ 120 plate reader were normalized relative to the response by the EC80 of hIL-23 alone (no compound added) and the buffer level. Compound potency (IC50) and maximal inhibitory response (% inhibition) were estimated by computer-aided curve fitting using a 4-parameter logistic (4PL) non-linear model. […]. Typically compounds with a low IC50 are desired. Typically compounds capable of completely inhibiting the IL23-induced response are desired. […]. Table 3-2: hIL-23 (pSTAT3) antagonist IC50 and % inhibition data

[2] = molecular target: T1, human IL-23R; assay: biochemical
How it was run: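 Membranes from HEK293 cells stably expressing Nluc-tagged human IL-23R were incubated 2 h at room temperature with test compound and a fluorophore-labelled tracer. After substrate addition, loss of BRET (TAMRA over luciferase emission) reported tracer displacement. A 4PL fit gave IC50 values.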

[3] = molecular target: T2, Nluc-IL23R fusion protein; assay: BRET competition vs TAMRA-labelled peptide, Nluc-IL23R membranes
[4] = molecular target: T3, human IL-23R endogenously expressed on …; assay: cell-based or functional assay
[5] = molecular target: T2, Nluc-IL23R fusion protein; assay: BRET competition vs TAMRA-labelled peptide, Nluc-IL23R membranes; remark: listed apart in the source
[6] = molecular target: T2, Nluc-IL23R fusion protein; assay: Ki from BRET competition (Cheng-Prusoff), Nluc-IL23R membranes

Row | IC50 ([1]; Example 2 (Tables 2-1 to 2-4), read-out: IC50 (pSTAT3)) [nM] | % displacement (hIL-23R binding) [2] [%] | IC50 ([1]; Table 3-2, EC80 of hIL-23, read-out: hIL-23 (pSTAT3) antagonist IC50) [nM] | IC50 [2] [nM] | % displacement (hIL-23R binding) [3] [%] | IC50 [3] [nM] | hIL-23 (pSTAT3) antagonist % inhibition [4] [%] | hIL-23 (pSTAT3) antagonist IC50 [4] [nM] | IC50 [5] [nM] | Ki [6] [nM] | Molecule
1 | 0.68 | 103 |  |  |  |  |  |  |  |  | CC(C)C[C@@H](CC(N)=O)NC(=O)[C@H](Cc1cccnc1)NC(=O)[C@H](CCN)NC(=O)[C@@H]1CCC(=O)NCc2ccc(cc2)CC(=O)N[C@@H](CO)C(=O)N[C@H]2CCC(=O)NCC[C@H](NC(=O)[C@H](CCC(N)=O)NC(=O)[C@H](Cc3c[nH]c4ccccc34)NC2=O)C(=O)N[C@@H](Cc2ccc(OCCN)cc2)C(=O)N[C@@H](Cc2ccc3ccccc3c2)C(=O)N[C@@](C)(CC(C)C)C(=O)N1 [Compound 11, [4-Aminomethyl-phenylacetyl](1c)*SE(2c)WQ[Dab](2c)[Y(2-aminoethoxy)][2-Nal][2-Me-Leu]E(1c)[Dab][3-(3-Pyridyl)-Ala][beta-hLeu]-[NH2]] ([X1]SEWQ[Dab][AEF][2Nal][αMeL]E[Dab][3Pal][β3hL]-NH2; lactam 3-6, N-10)
2 |  | 96 | 12 | 0.45 |  |  |  |  |  |  | CC(C)C[C@]1(C)NC(=O)[C@H](Cc2ccc3ccccc3c2)NC(=O)[C@H](Cc2ccc(OCCN)cc2)NC(=O)[C@@H]2CCNC(=O)CC[C@H](NC(=O)[C@H](CO)NC(=O)Cc3ccc(cc3)CNC(=O)CC[C@@H](C(=O)NCC[C@H](N)C(=O)N[C@@](C)(Cc3cccnc3)C(N)=O)NC1=O)C(=O)N[C@@H](Cc1c[nH]c3ccccc13)C(=O)N[C@@H](CCC(N)=O)C(=O)N2 [Compound 15, [4-Aminomethyl-phenylacetyl](1c)*SE(2c)WQ[Dab](2c)[Y(2-aminoethoxy)][2-Nal][2-Me-Leu]E(1c)[Iso-Dab][2-Me-3-(3-Pyridyl)-Ala]-[NH2]]
3 |  |  |  |  | 103 | 3.5 | 97 | 18 | 3.5 |  | Ac-KSCWQCW[2Nal]LER-NH2 (lactam 1-10; bridge 3-6; not fully specified (bridges); printed as [Ac]-K(1c)SC(2a)WQC(2a)W[2-Nal]LE(1c)R-[NH2]) [Ref 18]
4 |  |  |  |  | 100 | 0.058 | 103 | 7.8 | 0.058 | 0.0475 | [4‑Aminomethyl‑phenylacetyl]SCWQC[AEF][2Nal][αMeL]ER-NH2 (lactam N-10; bridge 3-6; not fully specified (bridges); printed as [4-Aminomethyl-phenylacetyl](1c)*SC(2a)WQC(2a)[Y(2-aminoethoxy)][2-Nal][2-Me-Leu]E(1c)R-[NH2], Y = Y(2-aminoethoxy)) [Ref 52]
5 |  |  |  |  | 110 | 2.8 | 99 | 29 | 2.8 | 2.31 | [3Amb]SCWQC[AEF][2Nal][αMeL]E[dR]-NH2 (lactam N-10; bridge 3-6; not fully specified (bridges); printed as [(3-Aminomethyl)benzoyl](1c)*SC(2a)WQC(2a)[Y(2-aminoethoxy)][2-Nal][2-Me-Leu]E(1c)[{d}R]-[NH2], Y = Y(2-aminoethoxy), R = D-Arg) [Ref 41]
6 |  |  |  |  |  | 0.39 | 95 | 21 | 0.39 | 0.318 | [4‑Aminomethyl‑phenylacetyl]SCWQC[AEF][2Nal][αMeL]ES-NH2 (lactam (positions not given here); bridge 3-6; not fully specified (bridges); printed as [4-Aminomethyl-phenylacetyl](1c)*SC(2a)WQC(2a)[Y(2-aminoethoxy)][2-Nal][2-Me-Leu]E(1c)S-[NH2], Y = Y(2-aminoethoxy)) [Ref 81]
7 |  |  |  |  |  | 87 |  | 370 | 87 |  | Ac-DESCWQCW[2Nal]LKR-NH2 (lactam 2-11; bridge 4-7; not fully specified (bridges); printed as [Ac]-DE(1c)SC(2a)WQC(2a)W[2-Nal]LK(1c)R-[NH2]) [Ref 17]
8 |  |  |  |  | 100 | 180 | 87 | 850 | 180 |  | H-DESCWQCWWLKR-NH2 (lactam 2-11; bridge 4-7; not fully specified (bridges)) [Ref 4]
9 |  |  |  |  | 103 | 12 | 89 | 45 | 12 |  | [3Amb]SCWQCW[2Nal]LER-NH2 (lactam N-10; bridge 3-6; not fully specified (bridges); printed as [(3-Aminomethyl)benzoyl](1c)*SC(2a)WQC(2a)W[2-Nal]LE(1c)R-[NH2]) [Ref 37]
